Experimental data as given in patent US8221992.

B1: recombinant PKCε (rePKCε) (Calbiochem) (protein)
chain: MVVFNGLLKIKICEAVSLKPTAWSLRHAVGPRPQTFLLDPYIALNVDDSRIGQTATKQKTNSPAWHDEFVTDVCNGRKIELAVFHDAPIGYDDFVANCTIQFEELLQNGSRHFEDWIDLEPEGRVYVIIDLSGSSGEAPKDNEERVFRERMRPRKRQGAVRRRVHQVNGHKFMATYLRQPTYCSHCRDFIWGVIGKQGYQCQVCTCVVHKRCHELIITKCAGLKKQETPDQVGSQRFSVNMPHKFGIHNYKVPTFCDHCGSLLWGLLRQGLQCKVCKMNVHRRCETNVAPNCGVDARGIAKVLADLGVTPDKITNSGQRRKKLIAGAESPQPASGSSPSEEDRSKSAPTSPCDQEIKELENNIRKALSFDNRGEEHRAASSPDGQLMSPGENGEVRQGQAKRLGLDEFNFIKVLGKGSFGKVMLAELKGKDEVYAVKVLKKDVILQDDDVDCTMTEKRILALARKHPYLTQLYCCFQTKDRLFFVMEYVNGGDLMFQIQRSRKFDEPRSRFYAAEVTSALMFLHQHGVIYRDLKLDNILLDAEGHCKLADFGMCKEGILNGVTTTTFCGTPDYIAPEILQELEYGPSVDWWALGVLMYEMMAGQPPFEADNEDDLFESILHDDVLYPVWLSKEAVSILKAFMTKNPHKRLGCVASQNGEDAIKQHPFFKEIDWVLLEQKKIKPPFKPRIKTKRDVNNFDQDFTREEPVLTLVDEAIVKQINQEEFKGFSYFGEDLMP
B2: PKCε in THP1 cell lysates (protein)
chain: B1 chain
B3: recombinant PKCζ (rePKCζ) (protein)
chain: MPSRTGPKMEGSGGRVRLKAHYGGDIFITSVDAATTFEELCEEVRDMCRLHQQHPLTLKWVDSEGDPCTVSSQMELEEAFRLARQCRDEGLIIHVFPSTPEQPGLPCPGEDKSIYRRGARRWRKLYRANGHLFQAKRFNRRAYCGQCSERIWGLARQGYRCINCKLLVHKRCHGLVPLTCRKHMDSVMPSQEPPVDDKNEDADLPSEETDGIAYISSSRKHDSIKDDSEDLKPVIDGMDGIKISQGLGLQDFDLIRVIGRGSYAKVLLVRLKKNDQIYAMKVVKKELVHDDEDIDWVQTEKHVFEQASSNPFLVGLHSCFQTTSRLFLVIEYVNGGDLMFHMQRQRKLPEEHARFYAAEICIALNFLHERGIIYRDLKLDNVLLDADGHIKLTDYGMCKEGLGPGDTTSTFCGTPNYIAPEILRGEEYGFSVDWWALGVLMFEMMAGRSPFDIITDNPDMNTEDYLFQVILEKPIRIPRFLSVKASHVLKGFLNKDPKERLGCRPQTGFSDIKSHAFFRSIDWDLLEKKQALPPFQPQITDDYGLDNFDTQFTSEPVQLTPDDEDAIKRIDQSEFEGFEYINPLLLSTEESV
B4: PKCζ in THP1 cell lysates (protein)
chain: B3 chain

Assays:
[1] = biological target: GST-TRAM fusion protein (wild type), Q86XR7
GST-TRAM fusion protein (wild type), Q86XR7, sequence (Q86XR7 whole entry, the tested form may be a part): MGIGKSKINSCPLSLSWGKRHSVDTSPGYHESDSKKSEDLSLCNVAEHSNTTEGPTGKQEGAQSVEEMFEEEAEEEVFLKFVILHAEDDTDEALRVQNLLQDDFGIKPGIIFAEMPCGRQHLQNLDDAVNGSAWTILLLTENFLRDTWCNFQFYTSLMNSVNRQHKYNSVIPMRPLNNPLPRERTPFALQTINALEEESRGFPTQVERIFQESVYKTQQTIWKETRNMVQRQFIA

[2] = biological target: Mal (MyD88 adaptor-like), P58753
Mal (MyD88 adaptor-like), P58753, sequence (P58753 whole entry): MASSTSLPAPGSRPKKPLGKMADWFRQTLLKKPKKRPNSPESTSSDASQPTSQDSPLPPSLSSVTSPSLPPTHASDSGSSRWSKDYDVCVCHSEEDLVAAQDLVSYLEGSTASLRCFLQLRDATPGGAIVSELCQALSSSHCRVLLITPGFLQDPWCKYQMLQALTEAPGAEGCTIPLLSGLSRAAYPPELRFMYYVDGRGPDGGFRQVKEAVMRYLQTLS

[3] = biological target: GST-TRAM Ser16 mutant (serine 16 mutated to alanine), Q86XR7
GST-TRAM Ser16 mutant (serine 16 mutated to alanine), Q86XR7, sequence (Q86XR7 whole entry, looked up, change not shown): as the sequence (Q86XR7 whole entry, the tested form may be a part) above

Row | Protein | phosphorylation in an in-vitro kinase assay ([γ32P] ATP, autoradiography) [1] | phosphorylation in an in-vitro kinase assay ([γ32P] ATP, autoradiography) [2] | phosphorylation of GST-TRAM after pulldown from immunodepleted THP1 lysates (kinase assay) [1] | phosphorylation of GST-TRAM after pulldown from THP1 lysates (kinase assay) [3]
1 | B1 | recombinant PKCε (rePKCε) (Calbiochem) phosphorylated GST-TRAM | rePKCε phosphorylated WT-TRAM but not Mal |  | 
2 | B2 |  |  | the removal of PKCε from the lysates abolishes the phosphorylation of TRAM | we mutated serine 16 to an alanine and found that the LPS dependent phosphorylation of TRAM was severally impaired
3 | B3 | Recombinant PKCζ did not phosphorylate TRAM again suggesting specificity |  |  | 
4 | B4 |  |  | The removal of PKCζ had no effect on the phosphorylation of TRAM | 
